Laboratory results published in US20110287017A1.

Biological target: membrane P-selectin coated in a flow chamber (low and high density) (UniProt P16109)
Assay: cell-based or functional assay

membrane P-selectin coated in a flow chamber (low and high density), sequence (P16109 42-830 limits assumed): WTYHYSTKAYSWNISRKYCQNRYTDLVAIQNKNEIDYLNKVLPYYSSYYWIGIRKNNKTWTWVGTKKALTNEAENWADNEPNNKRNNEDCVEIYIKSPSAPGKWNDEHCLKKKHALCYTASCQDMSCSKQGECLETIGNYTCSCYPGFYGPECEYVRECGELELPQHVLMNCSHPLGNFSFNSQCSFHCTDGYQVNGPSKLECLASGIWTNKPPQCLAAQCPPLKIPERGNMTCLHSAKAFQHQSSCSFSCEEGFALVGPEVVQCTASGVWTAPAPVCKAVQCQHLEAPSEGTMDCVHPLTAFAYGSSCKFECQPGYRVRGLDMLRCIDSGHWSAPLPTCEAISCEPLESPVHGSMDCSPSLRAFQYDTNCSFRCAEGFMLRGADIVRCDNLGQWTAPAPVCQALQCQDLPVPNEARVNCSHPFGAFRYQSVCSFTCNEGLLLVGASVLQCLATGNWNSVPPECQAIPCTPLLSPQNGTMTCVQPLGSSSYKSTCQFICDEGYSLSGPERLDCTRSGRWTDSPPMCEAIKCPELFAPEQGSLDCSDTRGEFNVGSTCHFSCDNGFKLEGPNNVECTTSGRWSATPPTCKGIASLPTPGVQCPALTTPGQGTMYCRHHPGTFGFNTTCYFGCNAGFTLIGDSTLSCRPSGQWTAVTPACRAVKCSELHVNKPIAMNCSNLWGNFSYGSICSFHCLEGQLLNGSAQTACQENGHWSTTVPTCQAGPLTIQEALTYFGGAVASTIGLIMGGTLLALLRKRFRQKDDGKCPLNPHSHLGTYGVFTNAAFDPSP

- time to block rolling neutrophils on high density P-selectin: < 20 min
Substance: G3 mouse monoclonal anti-P-selectin antibody
